Eight molecules from patent publication US20220402980A1 (published 2022) can be followed below.

The target in test [1] is T1, recombinant human αvβ6 extracellular domain (R&D Systems) (human, UniProt P06756 31-992; P18564 22-709).
T1 chain 1: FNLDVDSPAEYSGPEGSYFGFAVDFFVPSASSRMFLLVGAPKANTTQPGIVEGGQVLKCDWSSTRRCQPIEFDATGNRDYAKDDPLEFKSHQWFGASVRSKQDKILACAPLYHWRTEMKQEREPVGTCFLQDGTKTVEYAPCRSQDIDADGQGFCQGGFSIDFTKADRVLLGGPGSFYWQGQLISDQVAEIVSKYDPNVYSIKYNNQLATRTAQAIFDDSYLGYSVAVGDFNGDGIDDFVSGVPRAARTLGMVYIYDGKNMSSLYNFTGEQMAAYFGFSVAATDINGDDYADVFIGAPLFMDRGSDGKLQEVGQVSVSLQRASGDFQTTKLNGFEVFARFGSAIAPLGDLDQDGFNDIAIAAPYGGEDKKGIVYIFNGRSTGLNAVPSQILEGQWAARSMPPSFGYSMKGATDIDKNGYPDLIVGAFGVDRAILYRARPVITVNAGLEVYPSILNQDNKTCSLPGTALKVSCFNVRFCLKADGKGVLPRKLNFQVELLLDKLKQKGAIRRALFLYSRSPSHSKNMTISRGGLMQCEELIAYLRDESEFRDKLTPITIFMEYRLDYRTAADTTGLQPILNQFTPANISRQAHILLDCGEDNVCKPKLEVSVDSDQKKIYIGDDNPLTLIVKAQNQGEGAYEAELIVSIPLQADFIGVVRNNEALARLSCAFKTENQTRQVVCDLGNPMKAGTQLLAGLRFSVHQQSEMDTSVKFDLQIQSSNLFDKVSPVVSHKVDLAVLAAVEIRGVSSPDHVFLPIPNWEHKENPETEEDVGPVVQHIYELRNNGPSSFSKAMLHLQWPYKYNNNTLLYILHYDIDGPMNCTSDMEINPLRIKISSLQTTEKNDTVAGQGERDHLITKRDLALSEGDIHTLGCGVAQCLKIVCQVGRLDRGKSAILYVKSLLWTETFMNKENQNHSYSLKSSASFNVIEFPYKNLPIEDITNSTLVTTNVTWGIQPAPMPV
T1 chain 2: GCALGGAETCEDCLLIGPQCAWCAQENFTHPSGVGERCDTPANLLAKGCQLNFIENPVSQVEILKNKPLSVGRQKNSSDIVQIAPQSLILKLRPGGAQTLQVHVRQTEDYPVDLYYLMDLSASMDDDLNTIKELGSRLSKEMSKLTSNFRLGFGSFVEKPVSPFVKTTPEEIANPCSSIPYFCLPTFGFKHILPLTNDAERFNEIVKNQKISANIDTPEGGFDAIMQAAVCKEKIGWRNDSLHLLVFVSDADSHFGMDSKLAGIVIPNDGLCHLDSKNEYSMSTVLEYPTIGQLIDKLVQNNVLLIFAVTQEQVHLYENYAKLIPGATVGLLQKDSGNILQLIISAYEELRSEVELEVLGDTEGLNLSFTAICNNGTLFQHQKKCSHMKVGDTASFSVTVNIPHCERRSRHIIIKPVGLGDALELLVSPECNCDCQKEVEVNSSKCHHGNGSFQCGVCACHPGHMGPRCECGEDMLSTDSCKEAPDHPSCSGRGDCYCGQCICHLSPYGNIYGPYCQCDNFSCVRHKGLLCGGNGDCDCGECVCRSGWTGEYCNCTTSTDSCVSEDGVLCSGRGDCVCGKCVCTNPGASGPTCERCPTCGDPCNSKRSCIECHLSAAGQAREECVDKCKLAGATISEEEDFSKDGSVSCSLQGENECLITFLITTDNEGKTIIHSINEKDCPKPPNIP

In test [2] the target is T2, cell-surface expressed αvβ6 on human cells (5637 bladder cancer cells, HaCaT keratinocytes, BxPC-3 pancreatic … (human, UniProt P06756 31-1048; P18564 22-788).
T2 chain 1: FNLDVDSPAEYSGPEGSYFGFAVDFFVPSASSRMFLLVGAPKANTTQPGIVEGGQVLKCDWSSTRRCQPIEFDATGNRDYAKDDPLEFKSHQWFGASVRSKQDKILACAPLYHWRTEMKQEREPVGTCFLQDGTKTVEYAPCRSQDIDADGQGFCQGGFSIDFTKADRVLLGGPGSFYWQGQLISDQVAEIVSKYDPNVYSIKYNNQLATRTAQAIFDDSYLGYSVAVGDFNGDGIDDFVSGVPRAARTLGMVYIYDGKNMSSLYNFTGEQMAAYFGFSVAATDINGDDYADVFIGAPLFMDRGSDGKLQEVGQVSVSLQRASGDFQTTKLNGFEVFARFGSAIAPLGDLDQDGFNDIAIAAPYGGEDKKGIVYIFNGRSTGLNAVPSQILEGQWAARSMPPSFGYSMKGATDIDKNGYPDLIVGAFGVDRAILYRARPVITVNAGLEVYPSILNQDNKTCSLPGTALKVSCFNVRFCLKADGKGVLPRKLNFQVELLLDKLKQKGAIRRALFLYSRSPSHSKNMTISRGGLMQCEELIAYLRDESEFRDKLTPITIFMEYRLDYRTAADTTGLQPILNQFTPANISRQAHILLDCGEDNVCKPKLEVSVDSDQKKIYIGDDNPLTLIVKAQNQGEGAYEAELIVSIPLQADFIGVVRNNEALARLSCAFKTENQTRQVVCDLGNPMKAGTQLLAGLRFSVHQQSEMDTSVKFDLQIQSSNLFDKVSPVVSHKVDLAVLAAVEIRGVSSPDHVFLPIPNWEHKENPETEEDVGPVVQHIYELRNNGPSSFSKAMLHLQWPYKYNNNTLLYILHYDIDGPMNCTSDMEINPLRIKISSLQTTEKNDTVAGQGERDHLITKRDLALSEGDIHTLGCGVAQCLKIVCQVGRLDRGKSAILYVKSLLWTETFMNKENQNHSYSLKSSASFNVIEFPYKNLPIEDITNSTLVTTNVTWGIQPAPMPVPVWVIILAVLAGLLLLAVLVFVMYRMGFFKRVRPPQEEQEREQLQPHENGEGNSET
T2 chain 2: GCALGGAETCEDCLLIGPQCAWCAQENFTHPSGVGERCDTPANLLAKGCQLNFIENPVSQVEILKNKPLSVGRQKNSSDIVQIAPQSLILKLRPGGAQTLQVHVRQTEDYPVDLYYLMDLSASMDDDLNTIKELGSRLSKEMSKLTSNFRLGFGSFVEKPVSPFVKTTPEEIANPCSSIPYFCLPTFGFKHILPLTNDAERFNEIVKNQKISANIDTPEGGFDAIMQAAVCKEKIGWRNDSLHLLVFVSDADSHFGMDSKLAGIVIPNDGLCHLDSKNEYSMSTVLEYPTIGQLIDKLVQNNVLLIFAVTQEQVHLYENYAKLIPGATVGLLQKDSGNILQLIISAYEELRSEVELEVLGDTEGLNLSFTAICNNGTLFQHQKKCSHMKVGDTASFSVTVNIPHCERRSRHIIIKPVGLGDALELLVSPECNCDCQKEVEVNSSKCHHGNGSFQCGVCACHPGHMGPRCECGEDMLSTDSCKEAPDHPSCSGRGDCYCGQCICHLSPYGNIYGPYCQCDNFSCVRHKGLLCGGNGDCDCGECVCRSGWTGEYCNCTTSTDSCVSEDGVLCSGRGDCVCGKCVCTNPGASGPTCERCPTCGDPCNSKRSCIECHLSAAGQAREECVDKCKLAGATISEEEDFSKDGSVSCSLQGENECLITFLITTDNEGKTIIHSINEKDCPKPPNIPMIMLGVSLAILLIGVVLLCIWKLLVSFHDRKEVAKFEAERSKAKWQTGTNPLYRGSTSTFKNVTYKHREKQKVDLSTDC
Put plainly: FACS.

The target of test [3] is T2, cell-surface expressed αvβ6 on human …. As to the kind of experiment: FACS.
Test [4] has as its target T1, recombinant human αvβ6 extracellular ….
For test [5] the target is unchanged.
Test [6] addresses T3, αvβ8 integrin (purified, coated on microtiter plates) (UniProt P06756 31-992; P26012 43-684).
T3 chain 1: T1 chain 1
T3 chain 2: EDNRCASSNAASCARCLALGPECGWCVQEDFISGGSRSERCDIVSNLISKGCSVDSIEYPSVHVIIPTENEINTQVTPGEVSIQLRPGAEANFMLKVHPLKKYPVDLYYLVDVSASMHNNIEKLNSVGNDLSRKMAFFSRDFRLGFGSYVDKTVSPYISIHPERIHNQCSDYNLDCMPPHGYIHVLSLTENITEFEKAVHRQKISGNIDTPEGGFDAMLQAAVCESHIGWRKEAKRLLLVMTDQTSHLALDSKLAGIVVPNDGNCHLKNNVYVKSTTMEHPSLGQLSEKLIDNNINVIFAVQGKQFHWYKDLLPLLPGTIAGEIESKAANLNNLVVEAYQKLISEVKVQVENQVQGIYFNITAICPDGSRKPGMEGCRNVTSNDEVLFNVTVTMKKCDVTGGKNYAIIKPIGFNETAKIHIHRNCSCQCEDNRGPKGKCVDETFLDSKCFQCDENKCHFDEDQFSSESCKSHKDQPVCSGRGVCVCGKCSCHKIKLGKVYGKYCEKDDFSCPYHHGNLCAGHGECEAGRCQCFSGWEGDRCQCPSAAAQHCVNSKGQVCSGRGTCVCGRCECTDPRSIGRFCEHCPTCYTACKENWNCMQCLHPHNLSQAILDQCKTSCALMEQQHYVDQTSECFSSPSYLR

Read-outs that look alike come from different tables or passages of the source. Bridges are numbered along the chain shown (N, C = ends). Where no end group is shown, it is not given here. [ ]: non-standard residue; d: D form. maleimide‑NOTA = 1,4,7-triazacyclononane-1,4-bis-acetic acid-7-maleimidoethylacetamide; Lys(N3) = [N-]=[N+]=NCCCC[C@H](N)C(=O)O; Pra = C#CC[C@H](N)C(=O)O

As to CFETLRGEERILSILRHQNLLKELQD [peptide 2a], the inhibition constant Ki in test [1] is above 100 nM.
Consider FETLRGDLRILSILRHQNLLKELQD [peptide 4], for which the IC50 in test [2] was determined as 80 nM; in test [3] it was 16.9 nM.
For Ac-FETLRGDLRILSILR[Pra]QNL[Lys(N3)]KELQD-NH2 (triazole 16-20) [peptide 5 (triazole-stapled CgA39-63-derived peptide)], the results for the Ki in test [1] and in test [4] were 0.84 nM and 0.93 nM, respectively. Moreover, the figures for the IC50 in test [2] and in test [3] were 25 nM and 3.6 nM, respectively.
In the case of FETLRGDERILSILRHQNLLKELQD [peptide 1 (CgA-derived peptide, residues 39-63), synthetic], the half-maximal inhibitory concentration (IC50) in test [3] was determined as 640 nM.
For C(IRDye 800CW maleimide)FETLRGDLRILSILR[Pra]QNL[Lys(N3)]KELQD-NH2 (triazole 17-21) [5a-IRDye (peptide 5a coupled via Cys to maleimide-IRDye 800CW)], the values for the EC50 in test [5] and in test [6] were 2.8 nM and 1.9 nM, respectively.
Regarding C(maleimide‑NOTA)FETLRGDLRILSILR[Pra]QNL[Lys(N3)]KELQD-NH2 (triazole 17-21) [NOTA-5a (peptide 5a coupled to maleimide-NOTA)], in test [4], the inhibition constant Ki was found to be 2.31 nM.
For the molecule CFETLRGDLRILSILR[Pra]QNL[Lys(N3)]KELQD-NH2 (triazole 17-21) [peptide 5a], in test [4], the Ki was determined as 1.71 nM.
On the same count and under the same terms, under C(maleimide‑NOTA)FETLRGEERILSILRHQNLLKELQD [NOTA-2a (peptide 2a coupled to maleimide-NOTA)] stands above 1000 nM.
